Legend:
[1] = substrate: N#CS; assay: GC-FID of CH3SCN formation; format: biochemical, Raphanus sativus; conditions: 500 μM SAM constant, KSCN, 20 mM MES pH 7.0, 30 °C
Description: GC-FID of CH3SCN formation on recombinant RsHTMT

purified protein = substrate: C[S+](CC[C@H](N)C(=O)O)C[C@H]1O[C@@H](n2cnc3c(N)ncnc32)[C@H](O)[C@@H]1O; assay: purified protein; conditions: 20 mM iodide constant, 20 mM MES pH 7.0, 30 °C
[2] = substrate: S; assay: GC-MS headspace assay of methylated product; format: biochemical, Raphanus sativus; conditions: 500 μM SAM constant, supplied as NaSH, 20 mM MES pH 7.0, 30 °C
Description: (§1) GC-MS headspace assay of methylated product on recombinant RsHTMT

[3] = substrate: I; assay: GC-MS headspace assay of methylated product; format: biochemical, Raphanus sativus; conditions: 500 μM SAM constant, 20 mM MES pH 7.0, 30 °C
Description: as §1

B1: recombinant RsHTMT (Raphanus sativus) (protein)
chain: MAEGQQNSGNSNGENIIPPEDVAKFLPKTVEEGGWEKCWEDGVTPWDQGRATPLVVHLVESSSLPLGRALVPGCGGGHDVVAMASPERYVVGLDISESALEKAAETYASSPKAKYFTFVKEDFFTWRPSELFDLIFDYVVFCAIEPEMRAAWAKTMYELLKPDGELITLMYPITDHDGGPPYKVAVSTYEDVLVPVGFKAVSIEENPYSIATRKGKEKLGRWKKIN
notes: sense primer encodes MAEGQQ), His-tagged fusion in pET-21b, E. coli BL21(DE3), Ni-Sepharose, tag kept
- Km [1]: 40 µM
- Vmax [1]: 0.185 µmol/min/mg
- Km (purified protein): 190 µM
- Km [2]: 12240 µM
- Vmax [2]: 0.159 µmol/min/mg
- Km [3]: 4470 µM
- Vmax [3]: 0.139 µmol/min/mg
